Measurements from patent WO2006003999A1 (dated 2006).

T1: human B7RP-1-Fc (human, UniProt O75144 19-256, limits assumed)
T1 construct: not shown: Fc part
T1 sequence (looked up): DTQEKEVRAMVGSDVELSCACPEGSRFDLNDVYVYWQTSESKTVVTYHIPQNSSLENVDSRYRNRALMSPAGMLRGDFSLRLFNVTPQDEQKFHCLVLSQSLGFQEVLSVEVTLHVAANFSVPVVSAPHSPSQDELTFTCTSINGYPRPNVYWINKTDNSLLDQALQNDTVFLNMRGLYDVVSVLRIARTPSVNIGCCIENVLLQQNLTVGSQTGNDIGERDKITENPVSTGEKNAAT

B1: ICOS-Fc (Fc fusion, human, UniProt Q9Y6W8 21-140, looked up)
chain: EINGSANYEMFIFHNGGVQILCKYPDIVQQFKMQLLKGGQILCDLTKTKGSGNTVSIKSLKFCHSQLSNNSVSFFLYNLDHSHANYYFCNLSIFDPPPFKVTLTGGYLHIYESQLCCQLK
notes: also called ICOS (Inducible costimulator) Fc fusion; biotin-labeled ICOS-Fc; not shown: Fc part
B2: human anti-human B7RP-1 single-chain Fv antibody clone 223 (scFv, part only; not given: linker and E tag, not shown: small tags and cut ends)
scFv, part: EVQLLQSGADVKKPGASVKVSCTASGYTFTAYYLNWVRQAPGQGLEWMGWLNPTSGDTYYAQKFQGRVTMTRDTSINTAYMELSSLKSDDTAVYYCARDIRSIEVPFDLWGQGTLVTVSSGIVLTQSPGTLSLSPGERVALSCRASQSVTSSFVAWYQQKPGQTPRLLVYGASSRVPGIPDRFSGNGSGTDFTLTITRLEPEDFAIYYCQYYGDSPYTFGQGTKVDIKR

Tests used:
[1] = target: T1, human B7RP-1-Fc; experiment: SPR (BIAcore), ICOS-Fc immobilised on CM5, B7RP-1-Fc injected
[2] = target: T1, human B7RP-1-Fc; experiment: SPR (BIAcore), B7RP-1-Fc immobilised on CM5 or captured by anti-human Fc F(ab')2, scFv injected at 100 nM

Binder | Kd [1] | Kd [2]
B1 | ~7 nM | 
B2 |  | 13 to 15 nM
